From patent publication US20210283212A1 (RA PHARMACEUTICALS, published 2021)
Starred links: 1 amine or outer side, 2 acyl side, 3 side chain; linkers in the order of their positions; H or OH if unused. Positions of bridges follow the written chain, without caps; N, C: chain ends. Non-standard residues stand in square brackets, D forms with d. Primed or numbered codes have the meaning given here. No end group written: not given here. *: point of attachment. Lys‑C8 = N-ε-caprylic lysine, CCCCCCCC(=O)NCCCC[C@H](N[*:1])C(=O)[*:2]; mXylyl(3) = bridging moiety between the two residues given in brackets; m‑xylyl = bridging moiety between the two residues given in brackets; mXylyl″ = bridging moiety between the two marked residues; Ala(1H-tetrazol-5-yl) = N[C@@H](Cc1nnn[nH]1)C(=O)O; Trp(7-aza) = N[C@@H](Cc1c[nH]c2ncccc12)C(=O)O; mXylyl(4) = bridging moiety between residues; NMeD = CN[C@@H](CC(=O)O)C(=O)O; dPhg = N[C@@H](C(=O)O)c1ccccc1; Chg = N[C@H](C(=O)O)C1CCCCC1; Phg = N[C@H](C(=O)O)c1ccccc1; Tle = CC(C)(C)[C@H](N)C(=O)O; Lys‑C12 = N-ε-lauryl lysine; NMeS = CN[C@@H](CO)C(=O)O; Heptanoyl = CCCCCCC(=O)*; Pra = C#CC[C@H](N)C(=O)O; Nva = CCC[C@H](N)C(=O)O; Sar = CNCC(=O)O

Biological target: human C5 protein (human, UniProt P01031 19-673; P01031 678-1676)
Experiment: cell-based or functional assay

Binder	Avg. IC50, human hemolysis assay
Ac-[Nva]C[Phg]T[Trp(7-aza)]EY[NMeS]HC-NH2 (linker 2-10 via mXylyl″) [R3013]	344 nM
Ac-[Nva]CAT[Trp(7-aza)]EY[NMeS]HC[Nva]-NH2 (linker 2-10 via mXylyl(4)) [R3032]	> 10000 nM
Ac-CAERFCD[Tle]Y[Trp(7-aza)]EYP[Phg][Lys‑C12]-NH2 (linker 1-6 via m‑xylyl) [R3164]	36 nM
Ac-C[Tle]Y[Trp(7-aza)]EY[NMeS]HC-NH2 (linker 1-9 via mXylyl″) [R3016]	> 13000 nM
Ac-CVEAFCD[Tle]Y[Trp(7-aza)]EYP[Phg][Nva]-NH2 (linker 1-6 via mXylyl(3)) [R3153]	175 nM
Ac-CVERFCA[Tle]Y[Trp(7-aza)]EYP[Phg][Nva]-NH2 (linker 1-6 via m‑xylyl) [R3157]	84.5 nM
Ac-C[Tle]ERFCD[Tle]YWEF-NH2 (linker 1-6 via mXylyl(3)) [R3139]	97.2 nM
Ac-CAERFCD[Tle]YWEYP[Phg][Nva]-NH2 (linker 1-6 via mXylyl(3)) [R3148]	8.5 nM
Ac-CVERFC[NMeD][Tle]Y[Trp(7-aza)]EYP[Chg][Nva]-NH2 (linker 1-6 via m‑xylyl) [R3172]	12 nM
Ac-CVERFCA[Tle]Y[Trp(7-aza)]EYP[dPhg][Nva]-NH2 (linker 1-6 via m‑xylyl) [R3158]	327 nM
Ac-[Nva]CYEN[Tle]Y[Trp(7-aza)]ECP[Phg][Nva]-NH2 (linker 2-10 via mXylyl″) [R3018]	> 5730 nM
Ac-[Nva]C[Phg]T[Trp(7-aza)]EY[NMeS]HC[Nva]P[Nva]-NH2 (cysteine pairing not given here) [R3022]	> 10200 nM
CVERFCDGYWEYP ([mXylyl(1,6)]Ac-C-V-E-R-F-C-D-Tbg-Y-W-E-Y-P-NH2) [R3143]	18.6 nM
Ac-CVERFC[Ala(1H-tetrazol-5-yl)][Tle]Y[Trp(7-aza)]EYP[Chg][Nva]-NH2 (linker 1-6 via mXylyl(3)) [R3168]	7.5 nM
Ac-YPYC[Phg][Trp(7-aza)][Tle]E[Nva]NY[Nva]E-NH2 (SMILES CCC[C@H](NC(=O)[C@H](Cc1ccc(O)cc1)NC(=O)[C@H](CC(N)=O)NC(=O)[C@H](CCC)NC(=O)[C@H](CCC(=O)O)NC(=O)[C@@H](NC(=O)[C@H](Cc1c[nH]c2ncccc12)NC(=O)[C@@H](NC(=O)[C@H](CS)NC(=O)[C@H](Cc1ccc(O)cc1)NC(=O)[C@@H]1CCCN1C(=O)[C@H](Cc1ccc(O)cc1)NC(C)=O)c1ccccc1)C(C)(C)C)C(=O)N[C@@H](CCC(=O)O)C(N)=O) [R3023]	> 100000 nM
Ac-CVERACD[Tle]Y[Trp(7-aza)]EYP[dPhg][Nva]-NH2 (linker 1-6 via mXylyl(3)) [R3156]	> 10000 nM
Ac-CVERFCDVYWEYP-NH2 (linker 1-6 via mXylyl(3)) [R3140]	17.9 nM
Ac-CAERFCD[Tle]Y[Trp(7-aza)]EYP[dPhg]K-NH2 (linker 1-6 via m‑xylyl) [R3162]	16.5 nM
Ac-CVERFCDVYWEFP-NH2 (linker 1-6 via mXylyl(3)) [R3141]	24.5 nM
Ac-CVEAFCD[Tle]Y[Trp(7-aza)]EYP[dPhg][Nva]-NH2 (linker 1-6 via mXylyl(3)) [R3154]	592 nM

Binder	Avg. IC50, human hemolysis assay
Ac-CVERFCDVYWEF[Pra]-NH2 (linker 1-6 via mXylyl(3)) [R3147]	138 nM
Ac-C[Tle]ERFCDVYWEF-NH2 (linker 1-6 via mXylyl(3)) [R3146]	107 nM
Ac-[Nva]C[Phg]A[Trp(7-aza)]EY[NMeS]HC[Nva]-NH2 (linker 2-10 via mXylyl(4)) [R3033]	131 nM
Ac-CVERACD[Tle]Y[Trp(7-aza)]EYP[Phg][Nva]-NH2 (linker 1-6 via mXylyl(3)) [R3155]	1530 nM
MCSERYCEVRWEY-NH2 (linker 2-7 via mXylyl″) [R3020]	24.6 nM
Ac-CVARFCD[Tle]Y[Trp(7-aza)]EYP[Phg][Nva]-NH2 (linker 1-6 via mXylyl(3)) [R3150]	32 nM
Ac-CAERFCD[Tle]Y[Trp(7-aza)]EYP[Phg]K-NH2 (linker 1-6 via m‑xylyl) [R3161]	7 nM
Ac-CVARFCD[Tle]Y[Trp(7-aza)]EYP[dPhg][Nva]-NH2 (linker 1-6 via mXylyl(3)) [R3151]	165 nM
Ac-[Nva]CYEN[Tle]Y[Trp(7-aza)]EY[Sar][Nva][NMeS]-NH2 (SMILES CCC[C@H](NC(C)=O)C(=O)N[C@@H](CS)C(=O)N[C@@H](Cc1ccc(O)cc1)C(=O)N[C@@H](CCC(=O)O)C(=O)N[C@@H](CC(N)=O)C(=O)N[C@H](C(=O)N[C@@H](Cc1ccc(O)cc1)C(=O)N[C@@H](Cc1c[nH]c2ncccc12)C(=O)N[C@@H](CCC(=O)O)C(=O)N[C@@H](Cc1ccc(O)cc1)C(=O)N(C)CC(=O)N[C@@H](CCC)C(=O)N(C)[C@@H](CO)C(N)=O)C(C)(C)C) [R3001]	67.2 nM
Ac-CVERFCDVY[Trp(7-aza)]EYP-NH2 (linker 1-6 via mXylyl(3)) [R3142]	44.6 nM
Heptanoyl-C[dPhg]T[Trp(7-aza)]EY[NMeS]AC[Nva]-NH2 (linker 1-9 via mXylyl(3)) [R3137]	> 100000 nM
Ac-C[Phg]T[Trp(7-aza)]EY[NMeS]HC-NH2 (linker 1-9 via mXylyl″) [R3015]	> 3960 nM
Ac-CAERFCD[Tle]YWEYP[dPhg][Nva]-NH2 (linker 1-6 via mXylyl(3)) [R3149]	13.6 nM
Ac-AC[Phg]T[Trp(7-aza)]EY[NMeS]HC[Nva]-NH2 (linker 2-10 via mXylyl(4)) [R3031]	1090 nM
Ac-C[Phg]T[Trp(7-aza)]EY[NMeS]HC[Nva]P[Nva]-NH2 (linker 1-9 via mXylyl″) [R3014]	1420 nM
Ac-[Nva]CYEN[Tle]Y[Trp(7-aza)]EYP[Phg][Nva]C-NH2 (linker 2-14 via mXylyl″) [R3019]	1320 nM
Ac-CAERFCD[Tle]Y[Trp(7-aza)]EYP[Phg][Lys‑C8]-NH2 (linker 1-6 via m‑xylyl) [R3166]	17.5 nM
Ac-CVERFCD[Tle]YWEF-NH2 (linker 1-6 via mXylyl(3)) [R3138]	87.2 nM
Ac-[Tle]Y[Trp(7-aza)]EYP[Phg][Nva]-NH2 (SMILES CCC[C@H](NC(=O)[C@@H](NC(=O)[C@@H]1CCCN1C(=O)[C@H](Cc1ccc(O)cc1)NC(=O)[C@H](CCC(=O)O)NC(=O)[C@H](Cc1c[nH]c2ncccc12)NC(=O)[C@H](Cc1ccc(O)cc1)NC(=O)[C@@H](NC(C)=O)C(C)(C)C)c1ccccc1)C(N)=O) [R3028]	> 10000 nM
